In the supplement of paper PMC6757056:
± gives the standard deviation of the averaged measurements.

B1: library; a variant is named by its letters at N, in order (parent)
chain: GCUGUCACCGAGAAACUGUGAAGUAUAUCUUAAACCUGGGCACUUAAAAGAUAUAUGGAGUUAGUAGUGCAACCUGCUCGGUCUGAUGAGUCCNNNNNNGGACGAAACAGC

What was measured:
[1] = variants of: B1; experiment: normalized RNA/DNA level without ligand (relative to sTRSVctl = 100) (log10 (% of sTRSVctl)); HEK293T; ligand: cyclic di-GMP (c-di-GMP-II aptamer); higher = less ribozyme self-cleavage, higher mRNA level; conditions: reporter: mCherry (pCS4076), ligand present: no
Summary of the method: (§1)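 Only sequences with at least 100 DNA reads were analyzed, from HEK293T cells transfected with 4 µg per 6-well well of ribozyme switch library plasmids 72 h before RNA extraction with EDTA. Any ligand was added 1 h before transfection. RNA level was defined as RNA over DNA reads, normalized to a spiked-in non-cleaving sequence or to the top sequences, then scaled and log-transformed. The top set was 25 sequences, and the scaling was ×100 followed by log10.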

[2] = variants of: B1; experiment: normalized RNA/DNA level with ligand (relative to sTRSVctl = 100) (log10 (% of sTRSVctl)); HEK293T; ligand: cyclic di-GMP (c-di-GMP-II aptamer); ligand concentration (+) RNA-Seq: 1 mM; higher = less ribozyme self-cleavage, higher mRNA level; conditions: reporter: mCherry (pCS4076), ligand present: yes
Summary of the method: as §1

Variant: UUGAUA
- normalized RNA/DNA level without ligand (log10) [1]: 1.49 ± 0.02
- normalized RNA/DNA level with ligand (log10) [2]: 1.69 ± 0.17

Variant: UUGAUC
- normalized RNA/DNA level without ligand (log10) [1]: 1.73 ± 0.038
- normalized RNA/DNA level with ligand (log10) [2]: 1.85 ± 0.11

Variant: UUGAUU
- normalized RNA/DNA level without ligand (log10) [1]: 1.698 ± 0.016
- normalized RNA/DNA level with ligand (log10) [2]: 1.81 ± 0.083

Variant: AUGACA
- normalized RNA/DNA level without ligand (log10) [1]: 1.581 ± 0.013
- normalized RNA/DNA level with ligand (log10) [2]: 1.72 ± 0.14

Variant: AUGACG
- normalized RNA/DNA level without ligand (log10) [1]: 1.59 ± 0.089
- normalized RNA/DNA level with ligand (log10) [2]: 1.76 ± 0.086

Variant: GUCAUU
- normalized RNA/DNA level without ligand (log10) [1]: 1.66 ± 0.061
- normalized RNA/DNA level with ligand (log10) [2]: 1.81 ± 0.12

Variant: GUCAUA
- normalized RNA/DNA level without ligand (log10) [1]: 1.57 ± 0.025
- normalized RNA/DNA level with ligand (log10) [2]: 1.76 ± 0.14

Variant: GUCAUG
- normalized RNA/DNA level without ligand (log10) [1]: 1.61 ± 0.037
- normalized RNA/DNA level with ligand (log10) [2]: 1.75 ± 0.11

Variant: CUCAUG
- normalized RNA/DNA level without ligand (log10) [1]: 1.68 ± 0.031
- normalized RNA/DNA level with ligand (log10) [2]: 1.82 ± 0.14

Variant: CUCAUU
- normalized RNA/DNA level without ligand (log10) [1]: 1.79 ± 0.079
- normalized RNA/DNA level with ligand (log10) [2]: 1.9 ± 0.12

Variant: CUGAUC
- normalized RNA/DNA level without ligand (log10) [1]: 1.6663 ± 0.001
- normalized RNA/DNA level with ligand (log10) [2]: 1.76 ± 0.13

Variant: AUCCUA
- normalized RNA/DNA level without ligand (log10) [1]: 1.61 ± 0.041
- normalized RNA/DNA level with ligand (log10) [2]: 1.78 ± 0.083

Variant: AUCCUU
- normalized RNA/DNA level without ligand (log10) [1]: 1.74 ± 0.042
- normalized RNA/DNA level with ligand (log10) [2]: 1.89 ± 0.081

Variant: AUCCUC
- normalized RNA/DNA level without ligand (log10) [1]: 1.823 ± 0.0034
- normalized RNA/DNA level with ligand (log10) [2]: 1.94 ± 0.079

Variant: UUGACG
- normalized RNA/DNA level without ligand (log10) [1]: 1.77 ± 0.025
- normalized RNA/DNA level with ligand (log10) [2]: 1.88 ± 0.1

Variant: UUGACU
- normalized RNA/DNA level without ligand (log10) [1]: 1.75 ± 0.025
- normalized RNA/DNA level with ligand (log10) [2]: 1.84 ± 0.11

Variant: AUCAUG
- normalized RNA/DNA level without ligand (log10) [1]: 1.62 ± 0.019
- normalized RNA/DNA level with ligand (log10) [2]: 1.78 ± 0.11

Variant: AUCAUC
- normalized RNA/DNA level without ligand (log10) [1]: 1.8459 ± 0.00049
- normalized RNA/DNA level with ligand (log10) [2]: 1.935 ± 0.0035

Variant: AUCAUU
- normalized RNA/DNA level without ligand (log10) [1]: 1.695 ± 0.0081
- normalized RNA/DNA level with ligand (log10) [2]: 1.79 ± 0.12

Variant: AUCAUA
- normalized RNA/DNA level without ligand (log10) [1]: 1.615 ± 0.0089
- normalized RNA/DNA level with ligand (log10) [2]: 1.74 ± 0.075

Variant: AUGAAU
- normalized RNA/DNA level without ligand (log10) [1]: 1.53 ± 0.055
- normalized RNA/DNA level with ligand (log10) [2]: 1.72 ± 0.024

Variant: AUGAAG
- normalized RNA/DNA level without ligand (log10) [1]: 1.52 ± 0.13
- normalized RNA/DNA level with ligand (log10) [2]: 1.67 ± 0.064

Variant: CUCCCG
- normalized RNA/DNA level without ligand (log10) [1]: 1.79 ± 0.088
- normalized RNA/DNA level with ligand (log10) [2]: 1.91 ± 0.14

Variant: CUCCCA
- normalized RNA/DNA level without ligand (log10) [1]: 1.718 ± 0.0069
- normalized RNA/DNA level with ligand (log10) [2]: 1.87 ± 0.052

Variant: CUCCCC
- normalized RNA/DNA level without ligand (log10) [1]: 1.82 ± 0.032
- normalized RNA/DNA level with ligand (log10) [2]: 1.9 ± 0.089

Variant: CUCCCU
- normalized RNA/DNA level without ligand (log10) [1]: 1.661 ± 0.0018
- normalized RNA/DNA level with ligand (log10) [2]: 1.76 ± 0.05

Variant: UUCAGG
- normalized RNA/DNA level without ligand (log10) [1]: 1.82 ± 0.048
- normalized RNA/DNA level with ligand (log10) [2]: 1.88 ± 0.12

Variant: UUCAGU
- normalized RNA/DNA level without ligand (log10) [1]: 1.75 ± 0.023
- normalized RNA/DNA level with ligand (log10) [2]: 1.89 ± 0.069
